Source: patent publication US12679878B2, “CRF2 receptor agonists and their use in therapy” (SANOFI, priority 2020, dated 2026)
Starred links: 1 amine or outer side, 2 acyl side, 3 side chain; linkers in the order of their positions; H or OH if unused. Non-standard residues stand in square brackets, D forms with d. Groups on a side chain read outwards from the residue. No end group written: not given here. *: point of attachment. C20 diacid = O=C(O)CCCCCCCCCCCCCCCCCCC(=O)*; C18 diacid = O=C(O)CCCCCCCCCCCCCCCCC(=O)*; γGlu = O=C(O)[C@H](CCC(=O)[*:2])N[*:1]; Palmitoyl = CCCCCCCCCCCCCCCC(=O)*; AEEA = NCCOCCOCC(=O)O; Aib = CC(C)(N)C(=O)O

Molecular target: human corticotropin-releasing factor 2α (CRF2 α receptor) (human), Q13324
Sequence (Q13324 20-411): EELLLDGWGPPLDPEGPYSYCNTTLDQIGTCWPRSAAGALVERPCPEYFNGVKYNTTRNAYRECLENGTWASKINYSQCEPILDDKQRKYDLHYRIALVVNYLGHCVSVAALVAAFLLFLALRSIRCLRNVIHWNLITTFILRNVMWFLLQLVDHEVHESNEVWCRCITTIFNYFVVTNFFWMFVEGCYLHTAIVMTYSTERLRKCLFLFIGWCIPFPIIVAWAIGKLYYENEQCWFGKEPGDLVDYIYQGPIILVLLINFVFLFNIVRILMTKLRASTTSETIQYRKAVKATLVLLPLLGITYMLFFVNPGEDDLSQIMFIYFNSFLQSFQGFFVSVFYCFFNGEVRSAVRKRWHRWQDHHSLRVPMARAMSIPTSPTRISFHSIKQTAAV
Experiment: cell-based or functional assay

| Binder | EC50 [nM], 0% HSA | EC50 [nM], 0.1% HSA |
| --- | --- | --- |
| Ac-IVLSLD[dV]PIELK([AEEA-AEEA-γGlu-C18 diacid])QILLEQERQK[Aib]QREQAEKNEQILEQV-NH2 (SMILES CC[C@H](C)[C@H](NC(C)=O)C(=O)N[C@H](C(=O)N[C@@H](CC(C)C)C(=O)N[C@@H](CO)C(=O)N[C@@H](CC(C)C)C(=O)N[C@@H](CC(=O)O)C(=O)N[C@@H](C(=O)N1CCC[C@H]1C(=O)N[C@H](C(=O)N[C@@H](CCC(=O)O)C(=O)N[C@@H](CC(C)C)C(=O)N[C@@H](CCCCNC(=O)COCCOCCNC(=O)COCCOCCNC(=O)CC[C@H](NC(=O)CCCCCCCCCCCCCCCCC(=O)O)C(=O)O)C(=O)N[C@@H](CCC(N)=O)C(=O)N[C@H](C(=O)N[C@@H](CC(C)C)C(=O)N[C@@H](CC(C)C)C(=O)N[C@@H](CCC(=O)O)C(=O)N[C@@H](CCC(N)=O)C(=O)N[C@@H](CCC(=O)O)C(=O)N[C@@H](CCCNC(=N)N)C(=O)N[C@@H](CCC(N)=O)C(=O)N[C@@H](CCCCN)C(=O)NC(C)(C)C(=O)N[C@@H](CCC(N)=O)C(=O)N[C@@H](CCCNC(=N)N)C(=O)N[C@@H](CCC(=O)O)C(=O)N[C@@H](CCC(N)=O)C(=O)N[C@@H](C)C(=O)N[C@@H](CCC(=O)O)C(=O)N[C@@H](CCCCN)C(=O)N[C@@H](CC(N)=O)C(=O)N[C@@H](CCC(=O)O)C(=O)N[C@@H](CCC(N)=O)C(=O)N[C@H](C(=O)N[C@@H](CC(C)C)C(=O)N[C@@H](CCC(=O)O)C(=O)N[C@@H](CCC(N)=O)C(=O)N[C@H](C(N)=O)C(C)C)[C@@H](C)CC)[C@@H](C)CC)[C@@H](C)CC)C(C)C)C(C)C) [SEQ ID NO: 168] | 13.9 nM | – |
| IVLSLD[dV]PIKLK([AEEA-AEEA-γGlu-γGlu-C20 diacid])QILLKQERQK[Aib]QREQAEKNKQILAQV-NH2 (N-terminus assumed; SMILES CC[C@H](C)[C@H](N)C(=O)N[C@H](C(=O)N[C@@H](CC(C)C)C(=O)N[C@@H](CO)C(=O)N[C@@H](CC(C)C)C(=O)N[C@@H](CC(=O)O)C(=O)N[C@@H](C(=O)N1CCC[C@H]1C(=O)N[C@H](C(=O)N[C@@H](CCCCN)C(=O)N[C@@H](CC(C)C)C(=O)N[C@@H](CCCCNC(=O)COCCOCCNC(=O)COCCOCCNC(=O)CC[C@H](NC(=O)CC[C@H](NC(=O)CCCCCCCCCCCCCCCCCCC(=O)O)C(=O)O)C(=O)O)C(=O)N[C@@H](CCC(N)=O)C(=O)N[C@H](C(=O)N[C@@H](CC(C)C)C(=O)N[C@@H](CC(C)C)C(=O)N[C@@H](CCCCN)C(=O)N[C@@H](CCC(N)=O)C(=O)N[C@@H](CCC(=O)O)C(=O)N[C@@H](CCCNC(=N)N)C(=O)N[C@@H](CCC(N)=O)C(=O)N[C@@H](CCCCN)C(=O)NC(C)(C)C(=O)N[C@@H](CCC(N)=O)C(=O)N[C@@H](CCCNC(=N)N)C(=O)N[C@@H](CCC(=O)O)C(=O)N[C@@H](CCC(N)=O)C(=O)N[C@@H](C)C(=O)N[C@@H](CCC(=O)O)C(=O)N[C@@H](CCCCN)C(=O)N[C@@H](CC(N)=O)C(=O)N[C@@H](CCCCN)C(=O)N[C@@H](CCC(N)=O)C(=O)N[C@H](C(=O)N[C@@H](CC(C)C)C(=O)N[C@@H](C)C(=O)N[C@@H](CCC(N)=O)C(=O)N[C@H](C(N)=O)C(C)C)[C@@H](C)CC)[C@@H](C)CC)[C@@H](C)CC)C(C)C)C(C)C) [SEQ ID NO: 172] | 0.04 nM | 2.76 nM |
| Ac-IVLSLD[dV]PIKLK([AEEA-AEEA-γGlu-C18 diacid])QILLEQERQE[Aib]QREQAEKNEQILEQV-NH2 (SMILES CC[C@H](C)[C@H](NC(C)=O)C(=O)N[C@H](C(=O)N[C@@H](CC(C)C)C(=O)N[C@@H](CO)C(=O)N[C@@H](CC(C)C)C(=O)N[C@@H](CC(=O)O)C(=O)N[C@@H](C(=O)N1CCC[C@H]1C(=O)N[C@H](C(=O)N[C@@H](CCCCN)C(=O)N[C@@H](CC(C)C)C(=O)N[C@@H](CCCCNC(=O)COCCOCCNC(=O)COCCOCCNC(=O)CC[C@H](NC(=O)CCCCCCCCCCCCCCCCC(=O)O)C(=O)O)C(=O)N[C@@H](CCC(N)=O)C(=O)N[C@H](C(=O)N[C@@H](CC(C)C)C(=O)N[C@@H](CC(C)C)C(=O)N[C@@H](CCC(=O)O)C(=O)N[C@@H](CCC(N)=O)C(=O)N[C@@H](CCC(=O)O)C(=O)N[C@@H](CCCNC(=N)N)C(=O)N[C@@H](CCC(N)=O)C(=O)N[C@@H](CCC(=O)O)C(=O)NC(C)(C)C(=O)N[C@@H](CCC(N)=O)C(=O)N[C@@H](CCCNC(=N)N)C(=O)N[C@@H](CCC(=O)O)C(=O)N[C@@H](CCC(N)=O)C(=O)N[C@@H](C)C(=O)N[C@@H](CCC(=O)O)C(=O)N[C@@H](CCCCN)C(=O)N[C@@H](CC(N)=O)C(=O)N[C@@H](CCC(=O)O)C(=O)N[C@@H](CCC(N)=O)C(=O)N[C@H](C(=O)N[C@@H](CC(C)C)C(=O)N[C@@H](CCC(=O)O)C(=O)N[C@@H](CCC(N)=O)C(=O)N[C@H](C(N)=O)C(C)C)[C@@H](C)CC)[C@@H](C)CC)[C@@H](C)CC)C(C)C)C(C)C) [SEQ ID NO: 169] | 4.01 nM | 98.1 nM |
| Ac-IVLSLD[dV]PIELK([AEEA-AEEA-γGlu-C18 diacid])QILLEQERQE[Aib]QREQAEKNEQILEQV-NH2 (SMILES CC[C@H](C)[C@H](NC(C)=O)C(=O)N[C@H](C(=O)N[C@@H](CC(C)C)C(=O)N[C@@H](CO)C(=O)N[C@@H](CC(C)C)C(=O)N[C@@H](CC(=O)O)C(=O)N[C@@H](C(=O)N1CCC[C@H]1C(=O)N[C@H](C(=O)N[C@@H](CCC(=O)O)C(=O)N[C@@H](CC(C)C)C(=O)N[C@@H](CCCCNC(=O)COCCOCCNC(=O)COCCOCCNC(=O)CC[C@H](NC(=O)CCCCCCCCCCCCCCCCC(=O)O)C(=O)O)C(=O)N[C@@H](CCC(N)=O)C(=O)N[C@H](C(=O)N[C@@H](CC(C)C)C(=O)N[C@@H](CC(C)C)C(=O)N[C@@H](CCC(=O)O)C(=O)N[C@@H](CCC(N)=O)C(=O)N[C@@H](CCC(=O)O)C(=O)N[C@@H](CCCNC(=N)N)C(=O)N[C@@H](CCC(N)=O)C(=O)N[C@@H](CCC(=O)O)C(=O)NC(C)(C)C(=O)N[C@@H](CCC(N)=O)C(=O)N[C@@H](CCCNC(=N)N)C(=O)N[C@@H](CCC(=O)O)C(=O)N[C@@H](CCC(N)=O)C(=O)N[C@@H](C)C(=O)N[C@@H](CCC(=O)O)C(=O)N[C@@H](CCCCN)C(=O)N[C@@H](CC(N)=O)C(=O)N[C@@H](CCC(=O)O)C(=O)N[C@@H](CCC(N)=O)C(=O)N[C@H](C(=O)N[C@@H](CC(C)C)C(=O)N[C@@H](CCC(=O)O)C(=O)N[C@@H](CCC(N)=O)C(=O)N[C@H](C(N)=O)C(C)C)[C@@H](C)CC)[C@@H](C)CC)[C@@H](C)CC)C(C)C)C(C)C) [SEQ ID NO: 170] | 62.1 nM | – |
| IVLSLD[dV]PIKLK([AEEA-AEEA-γGlu-γGlu-C18 diacid])QILLKQERQK[Aib]QREQAEKNKQILAQV-NH2 (N-terminus assumed; SMILES CC[C@H](C)[C@H](N)C(=O)N[C@H](C(=O)N[C@@H](CC(C)C)C(=O)N[C@@H](CO)C(=O)N[C@@H](CC(C)C)C(=O)N[C@@H](CC(=O)O)C(=O)N[C@@H](C(=O)N1CCC[C@H]1C(=O)N[C@H](C(=O)N[C@@H](CCCCN)C(=O)N[C@@H](CC(C)C)C(=O)N[C@@H](CCCCNC(=O)COCCOCCNC(=O)COCCOCCNC(=O)CC[C@H](NC(=O)CC[C@H](NC(=O)CCCCCCCCCCCCCCCCC(=O)O)C(=O)O)C(=O)O)C(=O)N[C@@H](CCC(N)=O)C(=O)N[C@H](C(=O)N[C@@H](CC(C)C)C(=O)N[C@@H](CC(C)C)C(=O)N[C@@H](CCCCN)C(=O)N[C@@H](CCC(N)=O)C(=O)N[C@@H](CCC(=O)O)C(=O)N[C@@H](CCCNC(=N)N)C(=O)N[C@@H](CCC(N)=O)C(=O)N[C@@H](CCCCN)C(=O)NC(C)(C)C(=O)N[C@@H](CCC(N)=O)C(=O)N[C@@H](CCCNC(=N)N)C(=O)N[C@@H](CCC(=O)O)C(=O)N[C@@H](CCC(N)=O)C(=O)N[C@@H](C)C(=O)N[C@@H](CCC(=O)O)C(=O)N[C@@H](CCCCN)C(=O)N[C@@H](CC(N)=O)C(=O)N[C@@H](CCCCN)C(=O)N[C@@H](CCC(N)=O)C(=O)N[C@H](C(=O)N[C@@H](CC(C)C)C(=O)N[C@@H](C)C(=O)N[C@@H](CCC(N)=O)C(=O)N[C@H](C(N)=O)C(C)C)[C@@H](C)CC)[C@@H](C)CC)[C@@H](C)CC)C(C)C)C(C)C) [SEQ ID NO: 171] | 0.17 nM | 2.62 nM |
| IVLSLD[dV]PTKLK([γGlu-Palmitoyl])QKLLKQERQRK[Aib]REQAEKNKRILERV-NH2 (N-terminus assumed; SMILES CCCCCCCCCCCCCCCC(=O)N[C@@H](CCC(=O)NCCCC[C@H](NC(=O)[C@H](CC(C)C)NC(=O)[C@H](CCCCN)NC(=O)[C@@H](NC(=O)[C@@H]1CCCN1C(=O)[C@H](NC(=O)[C@H](CC(=O)O)NC(=O)[C@H](CC(C)C)NC(=O)[C@H](CO)NC(=O)[C@H](CC(C)C)NC(=O)[C@@H](NC(=O)[C@@H](N)[C@@H](C)CC)C(C)C)C(C)C)[C@@H](C)O)C(=O)N[C@@H](CCC(N)=O)C(=O)N[C@@H](CCCCN)C(=O)N[C@@H](CC(C)C)C(=O)N[C@@H](CC(C)C)C(=O)N[C@@H](CCCCN)C(=O)N[C@@H](CCC(N)=O)C(=O)N[C@@H](CCC(=O)O)C(=O)N[C@@H](CCCNC(=N)N)C(=O)N[C@@H](CCC(N)=O)C(=O)N[C@@H](CCCNC(=N)N)C(=O)N[C@@H](CCCCN)C(=O)NC(C)(C)C(=O)N[C@@H](CCCNC(=N)N)C(=O)N[C@@H](CCC(=O)O)C(=O)N[C@@H](CCC(N)=O)C(=O)N[C@@H](C)C(=O)N[C@@H](CCC(=O)O)C(=O)N[C@@H](CCCCN)C(=O)N[C@@H](CC(N)=O)C(=O)N[C@@H](CCCCN)C(=O)N[C@@H](CCCNC(=N)N)C(=O)N[C@H](C(=O)N[C@@H](CC(C)C)C(=O)N[C@@H](CCC(=O)O)C(=O)N[C@@H](CCCNC(=N)N)C(=O)N[C@H](C(N)=O)C(C)C)[C@@H](C)CC)C(=O)O) [SEQ ID NO: 20] | 0.01 nM | – |
